Experimental data: US20220251174A1 (published 2022)

Molecular target: SARS-CoV-2 Spike S2-hFc (SARS-CoV-2, UniProt P0DTC2 686-1213)
Test: Octet BLI; Fab analyte over S2-hFc on AHC sensors; steady-state analysis
Protocol: All label-free interaction analysis was performed on an Octet HTX biolayer interferometry-based detection system (ForteBio/Sartorius, Göttingen, Germany) equipped with various sensor types; AR (amine-reactive), SAX (streptavidin-coated), or AHC (anti-human-Fc capture) sensors. Experiments were conducted at 25° C. in a run buffer of PBS containing 0.05% Tween™-20 and 0.5 mg/mL BSA.
Binding affinity estimates. Different assay formats were used to estimate the binding affinities of Ab/target bimolecular interactions. In one assay format, Fab was titrated as monovalent analyte (typically as a 3-fold series with a top concentration of 3 μM, and at least one concentration in duplicate) over AHC sensors coated with human-Fc-fused targets RBD-hFc, S1-hFc or S2-hFc as ligands (Sino Biological). […] Global affinity estimates were determined using the Kinetics module of Fortebio's Data Analysis HT software version 12.0.1.55. Data were processed by subtracting the responses of a buffer analyte sample and fitting these referenced data globally to a simple 1:1 Langmuir binding model to deduce the KD value from the ratio of the kinetic rate constants (KD=kd/kₐ), where kd and kₐ are the dissociation and association rate constants, respectively. […] All samples were measured on duplicate sensors.

B1: 2-A6 Fab (Fab, V domains shown)
VH: QVTLRESGPALVKPTQTLTLTCTFSGFSLNTRGMSVSWIRQPPGKALEWLALIDWEDDKFYRTSLMTRLTISKDIFKNQVVLTMTNVDPVDTGTYYCARTYSVGVKYFGMDVWGQGTTVTVSS
VL: SSELTQDPAVSVALGQTVRITCQGDSLRNYYASWYRQEPGQAPILLIYGGNYRPSGIPDRFSGSSSGNTASLTITGAQAEDEADYYCNSRDSSGNHVVFGGGTKLTVL
B1 gave a Kd of 913 nM.
